# Laboratory results published in paper PMC10786891, “Massively parallel profiling of RNA-targeting CRISPR-Cas13d”.
# T1: EsCas13d, nuclease-dead (Eubacterium siraeum, UniProt B0MS50, R295A;H300A;R849A;H854A)
# T1 sequence: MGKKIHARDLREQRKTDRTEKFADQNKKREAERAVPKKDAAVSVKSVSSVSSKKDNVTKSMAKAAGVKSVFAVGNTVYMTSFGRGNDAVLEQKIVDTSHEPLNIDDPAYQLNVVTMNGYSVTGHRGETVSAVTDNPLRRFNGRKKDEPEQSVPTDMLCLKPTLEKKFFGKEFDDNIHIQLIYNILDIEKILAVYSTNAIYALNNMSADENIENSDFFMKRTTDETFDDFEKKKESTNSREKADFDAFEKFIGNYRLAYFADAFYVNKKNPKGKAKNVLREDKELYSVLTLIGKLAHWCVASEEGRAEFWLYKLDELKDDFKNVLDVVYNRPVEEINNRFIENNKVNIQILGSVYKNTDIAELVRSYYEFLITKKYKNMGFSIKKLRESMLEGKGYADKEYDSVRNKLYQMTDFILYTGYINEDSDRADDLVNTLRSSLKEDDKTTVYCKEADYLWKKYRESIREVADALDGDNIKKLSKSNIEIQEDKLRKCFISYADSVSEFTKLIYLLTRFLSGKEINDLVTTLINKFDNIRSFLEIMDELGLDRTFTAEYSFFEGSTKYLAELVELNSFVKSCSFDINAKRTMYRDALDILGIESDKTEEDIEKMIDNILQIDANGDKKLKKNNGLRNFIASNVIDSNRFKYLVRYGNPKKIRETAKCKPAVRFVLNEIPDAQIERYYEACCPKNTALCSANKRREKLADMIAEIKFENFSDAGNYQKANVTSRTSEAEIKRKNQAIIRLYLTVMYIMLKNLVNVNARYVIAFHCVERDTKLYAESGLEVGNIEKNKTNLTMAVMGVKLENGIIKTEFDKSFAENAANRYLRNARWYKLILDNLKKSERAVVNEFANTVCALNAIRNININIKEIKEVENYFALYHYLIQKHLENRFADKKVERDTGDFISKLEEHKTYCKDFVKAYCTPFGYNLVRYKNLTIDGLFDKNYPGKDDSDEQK
# Molecular target: T1, EsCas13d, nuclease-dead
# Experiment: crRNA (strand 1, pre-loaded); Mg2+; 40 mM Tris-HCl pH 7.5, 150 mM NaCl, 6 mM MgCl2, 1 mM DTT, 0.1% Tween-20, 0.2 mg/ml BSA; 25 C; 10 min per concentration, then washed
# Conditions: tags: His6-TwinStrep-SUMO cleaved; N-terminal SNAP kept (SNAP-Surface 488); label: 3' end held by stalled T7 RNA polymerase
row,Binder,Kd [nM]
1,target 2 MT 5'PFS AAU 3'PFS UCA (mixed) RNA 1: CACCCGUGCAAAAUUGCAGGGGUCUAAAACCUUCUCCAAAUUGUUUCAUCCU RNA 2: GGGAAUGGAUCCACAUCUACGAAUUCAAUAGGAUGAAACAAUUUGGAGAAGUCAAGAUCGGAAGAGCACACGU,10.4 ± 3.5
2,target 2 MT 5'PFS AGA 3'PFS AGA (mixed) RNA 1: CACCCGUGCAAAAUUGCAGGGGUCUAAAACCUUCUCCAAAUUGUUUCAUCCU RNA 2: GGGAAUGGAUCCACAUCUACGAAUUCAGAAGGAUGAAACAAUUUGGAGAAGAGAAGAUCGGAAGAGCACACGU,4.9 ± 0.7
3,target 2 MT 5'PFS UAG 3'PFS UAA (mixed) RNA 1: CACCCGUGCAAAAUUGCAGGGGUCUAAAACCUUCUCCAAAUUGUUUCAUCCU RNA 2: GGGAAUGGAUCCACAUCUACGAAUUCUAGAGGAUGAAACAAUUUGGAGAAGUAAAGAUCGGAAGAGCACACGU,2.8 ± 0.4
4,target 2 MT 5'PFS AGA 3'PFS AGC (mixed) RNA 1: CACCCGUGCAAAAUUGCAGGGGUCUAAAACCUUCUCCAAAUUGUUUCAUCCU RNA 2: GGGAAUGGAUCCACAUCUACGAAUUCAGAAGGAUGAAACAAUUUGGAGAAGAGCAGAUCGGAAGAGCACACGU,5.6 ± 1.2
5,target 2 MT 5'PFS AGA 3'PFS CAU (mixed) RNA 1: CACCCGUGCAAAAUUGCAGGGGUCUAAAACCUUCUCCAAAUUGUUUCAUCCU RNA 2: GGGAAUGGAUCCACAUCUACGAAUUCAGAAGGAUGAAACAAUUUGGAGAAGCAUAGAUCGGAAGAGCACACGU,8 ± 1.9
6,target 2 MT 5'PFS GUG 3'PFS CAG (mixed) RNA 1: CACCCGUGCAAAAUUGCAGGGGUCUAAAACCUUCUCCAAAUUGUUUCAUCCU RNA 2: GGGAAUGGAUCCACAUCUACGAAUUCGUGAGGAUGAAACAAUUUGGAGAAGCAGAGAUCGGAAGAGCACACGU,10.5 ± 0.8
7,target 2 MT 5'PFS AGU 3'PFS CAU (mixed) RNA 1: CACCCGUGCAAAAUUGCAGGGGUCUAAAACCUUCUCCAAAUUGUUUCAUCCU RNA 2: GGGAAUGGAUCCACAUCUACGAAUUCAGUAGGAUGAAACAAUUUGGAGAAGCAUAGAUCGGAAGAGCACACGU,11.1 ± 2.7
8,target 2 MT 5'PFS GUU 3'PFS ACG (mixed) RNA 1: CACCCGUGCAAAAUUGCAGGGGUCUAAAACCUUCUCCAAAUUGUUUCAUCCU RNA 2: GGGAAUGGAUCCACAUCUACGAAUUCGUUAGGAUGAAACAAUUUGGAGAAGACGAGAUCGGAAGAGCACACGU,17.5 ± 1.4
9,target 2 MT 5'PFS UAG 3'PFS UAC (mixed) RNA 1: CACCCGUGCAAAAUUGCAGGGGUCUAAAACCUUCUCCAAAUUGUUUCAUCCU RNA 2: GGGAAUGGAUCCACAUCUACGAAUUCUAGAGGAUGAAACAAUUUGGAGAAGUACAGAUCGGAAGAGCACACGU,2.65 ± 0.29
10,target 2 MT 5'PFS GUG 3'PFS CAC (mixed) RNA 1: CACCCGUGCAAAAUUGCAGGGGUCUAAAACCUUCUCCAAAUUGUUUCAUCCU RNA 2: GGGAAUGGAUCCACAUCUACGAAUUCGUGAGGAUGAAACAAUUUGGAGAAGCACAGAUCGGAAGAGCACACGU,10.6 ± 1
11,target 2 MT 5'PFS UUA 3'PFS CGA (mixed) RNA 1: CACCCGUGCAAAAUUGCAGGGGUCUAAAACCUUCUCCAAAUUGUUUCAUCCU RNA 2: GGGAAUGGAUCCACAUCUACGAAUUCUUAAGGAUGAAACAAUUUGGAGAAGCGAAGAUCGGAAGAGCACACGU,24 ± 4
12,target 2 MT 5'PFS AGC 3'PFS ACU (mixed) RNA 1: CACCCGUGCAAAAUUGCAGGGGUCUAAAACCUUCUCCAAAUUGUUUCAUCCU RNA 2: GGGAAUGGAUCCACAUCUACGAAUUCAGCAGGAUGAAACAAUUUGGAGAAGACUAGAUCGGAAGAGCACACGU,17 ± 6
13,target 1 complement block 2-7 (mixed) RNA 1: CACCCGUGCAAAAAUGCAGGGGUCUAAAACUGAGCGGAUAACCUCUCUAUGG RNA 2: GGGAAUGGAUCCACAUCUACGAAUUCGUACCAUAGAGAGGUUAUGGCGAGACCGAGAUCGGAAGAGCACACGU,13.8 ± 0.7
